Experimental data: the MegaScale stability set (Tsuboyama et al. 2023)

B1: HEEH_KT_rd6_3632 (parent)
chain: DAEELIELVERALKEGREIILLGVRITSEEAGKWFIEWIRRFL

Variants of: B1
Assay: folding stability dG (cDNA display proteolysis); higher = more stable
Conditions: PBS, room temperature

Variant	folding stability dG [kcal/mol]
DAEELIELVERALKEGRNIILLGVRITSEEAGKWFIEWIRRFL	3.69
DAEELIELVERALKEGRLIILLGVRITSEEAGKWFIEWIRRFL	3.83
DAEELIELVERALKEGRHIILLGVRITSEEAGKWFIEWIRRFL	3.85
DAEELIELVERALKEGRVIILLGVRITSEEAGKWFIEWIRRFL	3.91
DAEELIELVERALKEGRTIILLGVRITSEEAGKWFIEWIRRFL	3.94
DAEELIELVERALKEGRGIILLGVRITSEEAGKWFIEWIRRFL	3.58
DAEELIELVERALKEGRFIILLGVRITSEEAGKWFIEWIRRFL	3.87
DAEELIELVERALKEGRMIILLGVRITSEEAGKWFIEWIRRFL	3.66
DAEELIELVERALKEGRSIILLGVRITSEEAGKWFIEWIRRFL	3.83
DAEELIELVERALKEGRRIILLGVRITSEEAGKWFIEWIRRFL	3.79
DAEELIELVERALKEGRYIILLGVRITSEEAGKWFIEWIRRFL	3.78
DAEELIELVERALKEGRWIILLGVRITSEEAGKWFIEWIRRFL	3.78
DAEELIELVERALKEGRPIILLGVRITSEEAGKWFIEWIRRFL	3.64
DAEELIELVERALKEGRIIILLGVRITSEEAGKWFIEWIRRFL	4.02
DAEELIELVERALKEGRDIILLGVRITSEEAGKWFIEWIRRFL	3.44
DAEELIELVERALKEGRQIILLGVRITSEEAGKWFIEWIRRFL	3.74
DAEELIELVERALKEGRAIILLGVRITSEEAGKWFIEWIRRFL	3.74
DAEELIELVERALKEGRKIILLGVRITSEEAGKWFIEWIRRFL	3.55
DAEELIELVERALKEGGEIILLGVRITSEEAGKWFIEWIRRFL	3.3
DAEELIELVERALKEGFEIILLGVRITSEEAGKWFIEWIRRFL	3.63
DAEELIELVERALKEGEEIILLGVRITSEEAGKWFIEWIRRFL	3.23
DAEELIELVERALKEGSEIILLGVRITSEEAGKWFIEWIRRFL	3.27
DAEELIELVERALKEGMEIILLGVRITSEEAGKWFIEWIRRFL	3.6
DAEELIELVERALKEGNEIILLGVRITSEEAGKWFIEWIRRFL	3.3

Variant	folding stability dG [kcal/mol]
DAEELIELVERALKEGTEIILLGVRITSEEAGKWFIEWIRRFL	3.45
DAEELIELVERALKEGQEIILLGVRITSEEAGKWFIEWIRRFL	3.27
DAEELIELVERALKEGIEIILLGVRITSEEAGKWFIEWIRRFL	3.85
DAEELIELVERALKEGHEIILLGVRITSEEAGKWFIEWIRRFL	3.54
DAEELIELVERALKEGWEIILLGVRITSEEAGKWFIEWIRRFL	3.75
DAEELIELVERALKEGLEIILLGVRITSEEAGKWFIEWIRRFL	3.9
DAEELIELVERALKEGKEIILLGVRITSEEAGKWFIEWIRRFL	3.59
DAEELIELVERALKEGDEIILLGVRITSEEAGKWFIEWIRRFL	2.99
DAEELIELVERALKEGYEIILLGVRITSEEAGKWFIEWIRRFL	3.84
DAEELIELVERALKEGVEIILLGVRITSEEAGKWFIEWIRRFL	3.79
DAEELIELVERALKEGPEIILLGVRITSEEAGKWFIEWIRRFL	3.36
DAEELIELVERALKEGAEIILLGVRITSEEAGKWFIEWIRRFL	3.6
DAEELIELVERALKEIREIILLGVRITSEEAGKWFIEWIRRFL	4.25
DAEELIELVERALKEVREIILLGVRITSEEAGKWFIEWIRRFL	3.74
DAEELIELVERALKETREIILLGVRITSEEAGKWFIEWIRRFL	3.36
DAEELIELVERALKELREIILLGVRITSEEAGKWFIEWIRRFL	4.32
DAEELIELVERALKEKREIILLGVRITSEEAGKWFIEWIRRFL	3.53
DAEELIELVERALKEYREIILLGVRITSEEAGKWFIEWIRRFL	3.67
DAEELIELVERALKEDREIILLGVRITSEEAGKWFIEWIRRFL	3.07
DAEELIELVERALKERREIILLGVRITSEEAGKWFIEWIRRFL	3.44
DAEELIELVERALKESREIILLGVRITSEEAGKWFIEWIRRFL	3.49
DAEELIELVERALKEEREIILLGVRITSEEAGKWFIEWIRRFL	3.1
DAEELIELVERALKEPREIILLGVRITSEEAGKWFIEWIRRFL	3.26
DAEELIELVERALKEQREIILLGVRITSEEAGKWFIEWIRRFL	3.42

Variant	folding stability dG [kcal/mol]
DAEELIELVERALKECREIILLGVRITSEEAGKWFIEWIRRFL	4.34
DAEELIELVERALKEAREIILLGVRITSEEAGKWFIEWIRRFL	3.84
DAEELIELVERALKEWREIILLGVRITSEEAGKWFIEWIRRFL	4
DAEELIELVERALKENREIILLGVRITSEEAGKWFIEWIRRFL	3.58
DAEELIELVERALKEMREIILLGVRITSEEAGKWFIEWIRRFL	4.09
DAEELIELVERALKEHREIILLGVRITSEEAGKWFIEWIRRFL	3.58
DAEELIELVERALKEFREIILLGVRITSEEAGKWFIEWIRRFL	3.97
DAEELIELVERALKEGRELILLGVRITSEEAGKWFIEWIRRFL	3.56
DAEELIELVERALKEGREDILLGVRITSEEAGKWFIEWIRRFL	2.66
DAEELIELVERALKEGREFILLGVRITSEEAGKWFIEWIRRFL	3.43
DAEELIELVERALKEGREMILLGVRITSEEAGKWFIEWIRRFL	3.23
DAEELIELVERALKEGREKILLGVRITSEEAGKWFIEWIRRFL	2.94
DAEELIELVERALKEGREVILLGVRITSEEAGKWFIEWIRRFL	3.4
DAEELIELVERALKEGRETILLGVRITSEEAGKWFIEWIRRFL	2.97
DAEELIELVERALKEGREGILLGVRITSEEAGKWFIEWIRRFL	2.96
DAEELIELVERALKEGREHILLGVRITSEEAGKWFIEWIRRFL	2.98
DAEELIELVERALKEGRERILLGVRITSEEAGKWFIEWIRRFL	2.81
DAEELIELVERALKEGREQILLGVRITSEEAGKWFIEWIRRFL	2.91
DAEELIELVERALKEGRECILLGVRITSEEAGKWFIEWIRRFL	4.54
DAEELIELVERALKEGRENILLGVRITSEEAGKWFIEWIRRFL	2.86
DAEELIELVERALKEGREAILLGVRITSEEAGKWFIEWIRRFL	3.18
DAEELIELVERALKEGREWILLGVRITSEEAGKWFIEWIRRFL	3.44
DAEELIELVERALKEGREPILLGVRITSEEAGKWFIEWIRRFL	2.74
DAEELIELVERALKEGREEILLGVRITSEEAGKWFIEWIRRFL	2.63

Variant	folding stability dG [kcal/mol]
DAEELIELVERALKEGRESILLGVRITSEEAGKWFIEWIRRFL	2.75
DAEELIELVERALKEGREYILLGVRITSEEAGKWFIEWIRRFL	3.23
DAEELIELVERALKEGREIIFLGVRITSEEAGKWFIEWIRRFL	3.49
DAEELIELVERALKEGREIIILGVRITSEEAGKWFIEWIRRFL	3.83
DAEELIELVERALKEGREIIELGVRITSEEAGKWFIEWIRRFL	3.06
DAEELIELVERALKEGREIIPLGVRITSEEAGKWFIEWIRRFL	2.6
DAEELIELVERALKEGREIIQLGVRITSEEAGKWFIEWIRRFL	2.93
DAEELIELVERALKEGREIIDLGVRITSEEAGKWFIEWIRRFL	2.71
DAEELIELVERALKEGREIINLGVRITSEEAGKWFIEWIRRFL	3.01
DAEELIELVERALKEGREIIVLGVRITSEEAGKWFIEWIRRFL	3.9
DAEELIELVERALKEGREIITLGVRITSEEAGKWFIEWIRRFL	2.78
DAEELIELVERALKEGREIISLGVRITSEEAGKWFIEWIRRFL	3.12
DAEELIELVERALKEGREIIHLGVRITSEEAGKWFIEWIRRFL	2.92
DAEELIELVERALKEGREIIALGVRITSEEAGKWFIEWIRRFL	3.37
DAEELIELVERALKEGREIIKLGVRITSEEAGKWFIEWIRRFL	2.98
DAEELIELVERALKEGREIIRLGVRITSEEAGKWFIEWIRRFL	3.14
DAEELIELVERALKEGREIIWLGVRITSEEAGKWFIEWIRRFL	3.33
DAEELIELVERALKEGREIIMLGVRITSEEAGKWFIEWIRRFL	3.36
DAEELIELVERALKEGREIIGLGVRITSEEAGKWFIEWIRRFL	2.83
DAEELIELVERALKTGREIILLGVRITSEEAGKWFIEWIRRFL	3.48
DAEELIELVERALKQGREIILLGVRITSEEAGKWFIEWIRRFL	3.46
DAEELIELVERALKNGREIILLGVRITSEEAGKWFIEWIRRFL	3.57
DAEELIELVERALKSGREIILLGVRITSEEAGKWFIEWIRRFL	3.73
DAEELIELVERALKWGREIILLGVRITSEEAGKWFIEWIRRFL	3.95

Variant	folding stability dG [kcal/mol]
DAEELIELVERALKRGREIILLGVRITSEEAGKWFIEWIRRFL	3.38
DAEELIELVERALKYGREIILLGVRITSEEAGKWFIEWIRRFL	3.67
DAEELIELVERALKPGREIILLGVRITSEEAGKWFIEWIRRFL	3.21
DAEELIELVERALKVGREIILLGVRITSEEAGKWFIEWIRRFL	3.57
DAEELIELVERALKEGREIKLLGVRITSEEAGKWFIEWIRRFL	3.01
DAEELIELVERALKEGREIMLLGVRITSEEAGKWFIEWIRRFL	3.26
DAEELIELVERALKEGREITLLGVRITSEEAGKWFIEWIRRFL	3.73
DAEELIELVERALKEGREIELLGVRITSEEAGKWFIEWIRRFL	3.32
DAEELIELVERALKEGREINLLGVRITSEEAGKWFIEWIRRFL	3.08
DAEELIELVERALKEGREIGLLGVRITSEEAGKWFIEWIRRFL	2.71
DAEELIELVERALKEGREIQLLGVRITSEEAGKWFIEWIRRFL	3.12
DAEELIELVERALKEGREIFLLGVRITSEEAGKWFIEWIRRFL	3.32
DAEELIELVERALKEGREIRLLGVRITSEEAGKWFIEWIRRFL	3.13
DAEELIELVERALKEGREIALLGVRITSEEAGKWFIEWIRRFL	2.94
DAEELIELVERALKEGREIWLLGVRITSEEAGKWFIEWIRRFL	3.4
DAEELIELVERALKEGREISLLGVRITSEEAGKWFIEWIRRFL	3.18
DAEELIELVERALKEGREIDLLGVRITSEEAGKWFIEWIRRFL	2.84
DAEELIELVERALKEGREILLLGVRITSEEAGKWFIEWIRRFL	3.35
DAEELIELVERALKEGREIPLLGVRITSEEAGKWFIEWIRRFL	2.65
DAEELIELVERALKEGREIYLLGVRITSEEAGKWFIEWIRRFL	3.27
DAEELIELVERALKEGREIHLLGVRITSEEAGKWFIEWIRRFL	3.17
DAEELIELVERALKEGREIVLLGVRITSEEAGKWFIEWIRRFL	3.66
